Measured values as given in patent US20150147342A1 (published 2015).
Positions count from the first letter of the chain named.

B1: H1H704P (antibody, V domains shown)
VH: QVQLVESGGDVVQPGRSLRLSCAASGFTFSSYGMHWVRQAPGKGLEWVAIIWYDGSNKYYADSVKGRFTISRDNSKNTLYLQMNSLRVEDTAVYSCARDFSISSRHFDYWGQGTLVTVSS
VL: DIQMTQSPSSLSASVGDRVTITCRASQAINNYLAWFQQKPGKAPKSLIYATSNLQSGVPSQFSGSGSGTDYTLTISSLQPEDFATYYCQQYYIYPITFGQGTRLEIK
notes: Fully human antibody, human IgG1
B2: H1H706P (antibody, V domains shown)
VH: QVQLVESGGGVVQPGRSLRLSCAASGFTFSSYGMHWVRQAPDKGLEWVAVKWDDGSNKYYADSVKGRFTISRDNSKNTLYLQMNSLRAEDTAVYYCAREGPYDFYSGYGAFDIWGQGTMVTVSS
VL: DIQMTQSPSSLSASVGDRVTITCRASQGISNYLAWFQQKPGKAPKSLIYAASSLQSGVPSKFSGSGSGTDFTLTISSLQPEDFATYYCQQYNSYPRTFGQGTKVEIK
notes: as for B1
B3: H1H707P (antibody, V domains shown)
VH: B2 VH
VL: not shown
notes: as for B1
B4: H1H685P (antibody, V domains shown)
VH: EVQLVESGGGLVQPGGSLRLSCAASGFTFSSYDIHWVRQATGKGLEWVSAIGPAGDTYYPGSVKGRFTISRENAKNSLYLQMNSLRAGDTAVYYCARGLITFGGLIAPFDYWGQGTLVTVSS
VL: EIVLTQSPGTLSLSPGERATLSCRASQSVSSTYLAWYQQKPGQAPRLLIYGASSRATGIPDRFSGSGSGTDFTLTISRLEPEDFAVYYCQHYDNSQTFGQGTKVEIK
notes: also called mAb1
B5: H1H691P (antibody, V domains shown)
VH: EVQLVESGGGLVQPGRSLRLSCAASGFTFDDYAMHWVRQAPGKGLEWVSGISWNSGDIGYADSVKGRFTISRDNAKNSLYLQMNSLRAQDTALYYCAKAYGDYYYFYGMDVWGQGTTVTVS
VL: B4 VL with T32S, Y50F, G51S, H91Q, Q96L, Q100G
notes: as for B1
B6: H1H744N (antibody, V domains shown)
VH: QVQLVQSGVEVKKPGASVKVSCKTSGYTFSNNGFSWVRQAPGQGLEWLGWISGYNGNTNYAQKFQGRVTMTTDTSTSTAYMELRTLRSDDTAVYYCARDQDYSNFHWLDPWGQGTLVTVAS
VL: DIQMTQSPSSVSASVGDRVIITCRASQGLSSWLAWYQQKPGTAPKLLIHSASSLQTGVPSRFSGSGSGTEFALTINSLQPEDFGTYYCQQANSFPLTFGGGTRVEIK
B7: H1H744N (antibody, V domains shown)
VH: B6 VH
VL: B6 VL
B8: H1H724N (antibody, V domains shown)
VH: QVQLVESGGGVVQPGRSLRLSCAASGFTLSNYGMHWVRQAPGKGLEWVAVIWHDGSNTYYADSVKGRFTISRDNSKNTLYLQMNSLRAEDTAVYYCTREGLDFWSGYYPNWFDPWGQGTLVTVSS
VL: DIQMTQSPSSLSASVGDRVTITCRASQGIRNDLGWYQQKPGKAPKRLIYAASNLQGGVPSRFSGSGSGTEFTLTISSLQPEDFAAYYCLQHNIYPLTFGGGTKVEIK
B9: H1H690P (antibody, V domains shown)
VH: EVQLVESGGGLVQPGESLRLSCAASGFTFSSYAMSWVRQGPGKGLEWVSSITGSGDTTYYADSVKGRFTISRDNSKNTLYLHMNSLRAEDTAVYYCAKDFLDYSTYLAFDLWGQGTMVTVSS
VL: EIVLTQSPATLSLSPGERATLSCRASQSVSSYLTWYQQKPGQAPRLLSYDASNRATGIPARFSGSGSGTDFTLTISSLEPEDFAVYYCQQRSNWPLTFGGGTKVEIK
notes: as for B1

Assays:
Human Ang-2FD-hFc = molecular target: T1, Human Ang-2FD-hFc (human); assay: ELISA, 16.67 nM antibody + 2 nM human Ang-2FD-hFc, on coated hTie-2-mFc (competitor)
T1 construct: Order of the pieces follows the name (Ang-2FD, then hFc); also called Dimeric Human Ang-2FD; human Ang-2FD protein conjugated to human IgG
Description: (§1) Tie-2 is a natural receptor for Ang-2. Anti-Ang-2 antibodies were tested for their ability to block Ang-2 binding to human Tie-2 (hTie-2). hTie-2-mFc (a chimeric construct consisting of human Tie-2 conjugated to mouse IgG; SEQ ID NO:525) was coated onto 96-well plates at a concentration of 2 μg/ml and incubated overnight followed by washing four times in wash buffer (PBS with 0.05% Tween-20). The plate was then blocked with PBS (Irvine Scientific, Santa Ana, Calif.) containing 0.5% BSA (Sigma-Aldrich Corp., St. Louis, Mo.) for one hour at room temperature. In a separate plate, purified anti-Ang-2 antibodies, at a starting concentration of 50 nM, were serially diluted by a factor of three across the plate. […] The antibody/Ang-2FD-Fc mixture was then added to the plate containing hTie-2-mFc and incubated for one hour at room temperature.

Mouse Ang-2FD-hFc = molecular target: T2, Mouse Ang-2FD-hFc (mouse (Mus musculus)); assay: ELISA, 16.67 nM antibody + 8 nM mouse Ang-2FD-hFc, on coated hTie-2-mFc (competitor)
T2 construct: Order of the pieces follows the name; also called Dimeric Mouse Ang-2FD
Description: as §1

Monkey Ang-2FD-hFc = molecular target: T3, Monkey Ang-2FD-hFc (monkey (Macca fascicularis)); assay: ELISA, 16.67 nM antibody + 2 nM monkey Ang-2FD-hFc, on coated hTie-2-mFc (competitor)
T3 construct: Order of the pieces follows the name; also called Dimeric Monkey Ang-2FD
Description: as §1

[1] = molecular target: T4, Dimeric fibrinogen-like domain of mouse (Mus musculus) Ang-2 conjugated to human IgG1 (mouse (Mus musculus)); assay: SPR, antibody captured on anti-human kappa, 25 C
T4 construct: also called Dimeric Mouse Ang-2FD; Mouse Ang-2FD-hFc
Description: (§2) Additional binding experiments were conducted using selected anti-Ang-2 antibodies at two different temperatures to further assess cross-species affinity. Each selected antibody or control construct was captured at a flow rate of 40 μL/min for 1 minute on a goat anti-human kappa polyclonal antibody surface created through direct chemical coupling to a BIACORE™ chip to form a captured antibody surface.

[2] = molecular target: T4, Dimeric fibrinogen-like domain of mouse …; assay: SPR, antibody captured on anti-human kappa, 37 C
Description: as §2

[3] = molecular target: T4, Dimeric fibrinogen-like domain of mouse …; assay: SPR, hIgG1 antibody captured, room temp
Description: (§3) Antibody was captured on a goat anti-mouse IgG polyclonal antibody surface, a goat anti-human κ polyclonal antibody (Southern Biotech, Birmingham, Ala.) surface or a goat anti-human IgG polyclonal antibody (Jackson Immuno Research Lab, West Grove, Pa.) surface created through direct amine coupling to a BIACORE™ CM5 sensor chip to form a captured antibody surface. […] Antigen-antibody binding and dissociation were monitored in real time at room temperature. Kinetic analysis was performed to calculate KD and half-life of antigen/antibody complex dissociation.
(§4) The above experiment was repeated using selected purified anti-Ang-2 antibodies cloned onto human IgG1.

[4] = molecular target: T5, Dimeric fibrinogen-like domain of monkey (Macca fascicularis) Ang-2 conjugated to human IgG1 (monkey (Macca fascicularis)); assay: SPR, antibody captured on anti-human kappa, 25 C
T5 construct: also called Dimeric Monkey Ang-2FD; Monkey Ang-2FD-hFc
Description: as §2

[5] = molecular target: T5, Dimeric fibrinogen-like domain of …; assay: SPR, antibody captured on anti-human kappa, 37 C
Description: as §2

[6] = molecular target: T5, Dimeric fibrinogen-like domain of …; assay: SPR, hIgG1 antibody captured, room temp
Description: as §3, §4

[7] = molecular target: T6, Dimeric fibrinogen-like domain of human Ang-2 conjugated to human IgG1 (human); assay: SPR, hIgG1 antibody captured, room temp
T6 construct: also called Dimeric Human Ang-2FD; Human Ang-2FD-hFc
Description: as §3, §4

| Percent Blocking of Ang-2FD Binding to Tie-2 (Human Ang-2FD-hFc) | Percent Blocking of Ang-2FD Binding to Tie-2 (Mouse Ang-2FD-hFc) | Percent Blocking of Ang-2FD Binding to Tie-2 (Monkey Ang-2FD-hFc) | also measured | Binder |
| --- | --- | --- | --- | --- |
| 97% | 41.8% | – | – | B1 |
| 97.1% | 95.9% | 99.8% | – | B2 |
| 95.1% | 93.8% | – | – | B3 |
| – | – | – | Kd [1]: 0.0651 nM; T1/2 [1]: 3.47 h; Kd [2]: 0.0939 nM; T1/2 [2]: 1.07 h; Kd [3]: 0.148 nM; T1/2 [3]: 2.14 h | B4 |
| 97.4% | 96.7% | 99.8% | – | B5 |
| – | – | – | Kd [4]: 0.244 nM; T1/2 [4]: 0.4 h; Kd [1]: 0.385 nM; T1/2 [1]: 0.55 h; Kd [5]: 0.32 nM; T1/2 [5]: 0.183 h; Kd [2]: 0.215 nM; T1/2 [2]: 0.433 h; Kd [6]: 0.346 nM; T1/2 [6]: 2.73 h; T1/2 [3]: 1.92 h; Kd [7]: 0.114 nM; T1/2 [7]: 2.12 h | B6 |
| 97.9% | 97.6% | 96.2% | – | B7 |
| 96.6% | 97.1% | 96.6% | – | B8 |
| 97.2% | 98% | 99.6% | – | B9 |
